{"source": "patent US20240100159A1", "about": "“USE OF IL-7R-ALPHA-GAMMA AGONIST PEPTIDES IN CELL MANUFACTURING” (MEDIKINE, INC., priority 2022, published 2024)", "target": "T1, hu-IL-7Rα subunit (human, UniProt P16871 21-239, limits assumed)", "T1 construct": "also called human interleukin-7 receptor subunit α; CD127", "T1 sequence (looked up)": "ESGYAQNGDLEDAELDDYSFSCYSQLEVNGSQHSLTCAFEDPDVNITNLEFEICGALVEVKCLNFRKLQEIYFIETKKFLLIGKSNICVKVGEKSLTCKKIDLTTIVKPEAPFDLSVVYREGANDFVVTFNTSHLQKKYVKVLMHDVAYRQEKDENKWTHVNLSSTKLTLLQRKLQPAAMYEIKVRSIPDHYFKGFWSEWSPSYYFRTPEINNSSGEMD", "test": "phage ELISA competition assay", "data": [{"binder": "SLTVPWCTLDPGSMQCAWLQNR (also called IL-7Rα ligand)", "note": "[SEQ ID NO 112]", "values": [{"measurement": "IC50", "result": "< 10", "unit": "µM"}]}]}
